Laboratory results from ChEMBL document CHEMBL1250451, “Mechanistic insights into a Ca2+-dependent family of alpha-mannosidases in a human gut symbiont” (Nat Chem Biol, 2010).

Key:
Type in all cases: protein assay
[1] = substrate: O=[N+]([O-])c1ccc(O[C@H]2O[C@H](CO)[C@@H](O)[C@H](O)[C@@H]2O)cc1; test: Activity of Bacteroides thetaiotaomicron GH92 alpha-mannosidase GH92 alpha-mannosidase 3991 assessed as mannose release after 16 hrs by HPLC
[2] = substrate: O=[N+]([O-])c1ccc(O[C@H]2O[C@H](CO)[C@@H](O)[C@H](O)[C@@H]2O)cc1; test: Ratio of Kcat to Km for Bacteroides thetaiotaomicron GH92 alpha-mannosidase GH92 alpha-mannosidase 3991 assessed as mannose release after 16 hrs by HPLC
[3] = substrate: O=[N+]([O-])c1ccc(O[C@H]2O[C@H](CO)[C@@H](O)[C@H](O)[C@@H]2O)cc1; test: (§1) Activity of Bacteroides thetaiotaomicron GH92 alpha-mannosidase GH92 alpha-mannosidase 3784 assessed as mannose release after 16 hrs by HPLC
[4] = substrate: OC[C@H]1O[C@H](O[C@H]2[C@@H](O)[C@H](O)[C@@H](CO)O[C@@H]2O)[C@@H](O)[C@@H](O)[C@@H]1O; test: as §1
[5] = substrate: O=[N+]([O-])c1ccc(O[C@H]2O[C@H](CO)[C@@H](O)[C@H](O)[C@@H]2O)cc1; test: (§2) Ratio of Kcat to Km for Bacteroides thetaiotaomicron GH92 alpha-mannosidase GH92 alpha-mannosidase 3784 assessed as mannose release after 16 hrs by HPLC
[6] = substrate: OC[C@H]1O[C@H](O[C@H]2[C@@H](O)[C@H](O)[C@@H](CO)O[C@@H]2O)[C@@H](O)[C@@H](O)[C@@H]1O; test: as §2
[7] = substrate: O=[N+]([O-])c1ccc(O[C@H]2O[C@H](CO)[C@@H](O)[C@H](O)[C@@H]2O)cc1; test: (§3) Ratio of Kcat to Km for Bacteroides thetaiotaomicron GH92 alpha-mannosidase GH92 alpha-mannosidase 3965 assessed as mannose release after 16 hrs by HPLC
[8] = substrate: OC[C@H]1O[C@H](O[C@H]2[C@H](O)[C@H](O)[C@@H](O)O[C@@H]2CO)[C@@H](O)[C@@H](O)[C@@H]1O; test: as §3
[9] = substrate: O=[N+]([O-])c1ccc(O[C@H]2O[C@H](CO)[C@@H](O)[C@H](O)[C@@H]2O)cc1; test: (§4) Activity of Bacteroides thetaiotaomicron GH92 alpha-mannosidase GH92 alpha-mannosidase 3965 assessed as mannose release after 16 hrs by HPLC
[10] = substrate: OC[C@H]1O[C@H](O[C@H]2[C@H](O)[C@H](O)[C@@H](O)O[C@@H]2CO)[C@@H](O)[C@@H](O)[C@@H]1O; test: as §4
[11] = substrate: O=[N+]([O-])c1ccc(O[C@H]2O[C@H](CO)[C@@H](O)[C@H](O)[C@@H]2O)cc1; test: Activity of Bacteroides thetaiotaomicron GH92 alpha-mannosidase GH92 alpha-mannosidase 3963 assessed as mannose release after 16 hrs by HPLC
[12] = substrate: O=[N+]([O-])c1ccc(O[C@H]2O[C@H](CO)[C@@H](O)[C@H](O)[C@@H]2O)cc1; test: Ratio of Kcat to Km for Bacteroides thetaiotaomicron GH92 alpha-mannosidase GH92 alpha-mannosidase 3963 assessed as mannose release after 16 hrs by HPLC
[13] = substrate: O=[N+]([O-])c1ccc(O[C@H]2O[C@H](CO)[C@@H](O)[C@H](O)[C@@H]2O)cc1; test: (§5) Activity of Bacteroides thetaiotaomicron GH92 alpha-mannosidase GH92 alpha-mannosidase 3962 assessed as mannose release after 16 hrs by HPLC
[14] = substrate: OC[C@H]1O[C@H](O[C@H]2[C@@H](O)[C@H](O)[C@@H](CO)O[C@@H]2O)[C@@H](O)[C@@H](O)[C@@H]1O; test: as §5
[15] = substrate: O=[N+]([O-])c1ccc(O[C@H]2O[C@H](CO)[C@@H](O)[C@H](O)[C@@H]2O)cc1; test: (§6) Ratio of Kcat to Km for Bacteroides thetaiotaomicron GH92 alpha-mannosidase GH92 alpha-mannosidase 3962 assessed as mannose release after 16 hrs by HPLC
[16] = substrate: OC[C@H]1O[C@H](O[C@H]2[C@@H](O)[C@H](O)[C@@H](CO)O[C@@H]2O)[C@@H](O)[C@@H](O)[C@@H]1O; test: as §6

B1: Alpha-1,2-mannosidase (BT_3991) (Bacteroides thetaiotaomicron), Q8A0N0 (protein)
chain: MKLKTLLIGCFGGFIMLNSCTESPSVKDYSAYVNPFIGTGGHGHTFPGAVVPHGMIQPSPDTRIDGWDACSGYYYDDNTINGFSHTHVSGTGCCDYGDVLLMPTVGKPQYLTTDPESQKLAYASAFSHENETAEPGYYSVFLDTYQVKAEITATKRGAIHRYTFPESTESGFIIDLDYSLQRQTNYEMEIEVISDTEICGHKKTTYWAFDQYINFYAKFSKPFAYTLITDSVTMDNGKRLPVCKAVLHFNTKKDEEVLVKVGVSAVDIAGARKNVESEIPEWDFDKVRKDARTAWNNYLSKIDITTSDKEDKTIFYTALYHTAISPNLFTDADGRYLGMDLEVHQGDTINPLYTVFSLWDTFRALHPLMTIIDPNLNNQFINSLIRKHQEGGIYPMWDLASNYTGTMIGYHAVPVIVDAYMKGYRNFDAHEAYKASLRAAEYDTTGIKCPDLVLPHLMPKAKYYKNAIGYIPCDRENESVAKALEYAYDDWCISIFAEAMNDFENKAKYERFAKAYEFYFDKSTRFMRGLDSNGEWRTPFNPRASTHRSDDYCEGTAWQWTWFVPHDVEGLVKLMGGEDAFVEKLDSLFTVDSSLDGETTSADISGLIGQYAHGNEPSHHVIHLYNYVNRPWRTQELVDSVYRSQYANNVDGLSGNEDCGQMSAWYILNSMGFYQVCPGKPVYSIGRPAFDKAVINLPGEKTFSIVAKNNSKSNKYIESVLLNGKPLDTPFFGHQDIVAGGVMEIRMTDHPTQWGVRQ
Km [1]: 2700 µM | kcat [1]: 0.0025 s⁻¹ | kcat/Km [2]: 0.917 M⁻¹ s⁻¹

B2: Alpha-1,2-mannosidase (BT_3784) (Bacteroides thetaiotaomicron), Q8A182 (protein)
chain: MKTHFSFKHLLFIGGAVLYSMQISAVKNPVDYVSTLVGTQSKFELSTGNTYPATALPWGMNFWTPQTGKMGDGWAYTYNADKIRGFKQTHQPSPWMNDYGQFSIMPITGGLVFDQDQRASWFSHKAEVAKPYYYKVYLADHDVTTELVPTERAAMFRFTYPETKNAYVVIDAFDKGSYVKVIPEENKIIGYSTKNSGGVPENFKNYFVIQFDKPFTFTSGVKENNILPNETEVQGNHTGAIIGFATQKGEIVHARVASSFISYEQAELNLKELGKDSFDQLVTKGKDIWNREMSKVDVEDDNIDNLRTFYSCLYRSMLFPRSFYEIDAKGQVVHYSPYNGKVLPGYMFTDTGFWDTFRCLFPFLNLMYPSMNQKMQEGLVNAYLESGFLPEWASPGHRDCMVGNNSASVVADAYIKGLRGYDIETLWEALKHDANAHLRGTASGRLAYDAYNKLGYVPNNIGIGQNVARTLEYAYNDWTIYTLGKKLGKPASEIDIFKQRALNYKNVYHPKRKLMVGKDDKGVFNPKFDAVDWSGEFCEGNSWHWSFCVFHDPQGLIDLMGGKKEFNNMMDSVFVIPGKQGMESRGMIHEMREMQVMNMGQYAHGNQPIQHMVYLYNYSGEPWKAQHWVREIMDKLYTAGPDGYCGDEDNGQTSAWYVFSALGFYPVCPGTDQYILGTPLFKSAKLHLENGKTVTIKASNNNTDNRYVKDMKVNGKAFTRNYLTHDQLLKGANIQYQMSPTPNKQRGTTEKDIPYSLSFE
Km [3]: 6900 µM | kcat [3]: 0.08 s⁻¹ | Km [4]: 2300 µM | kcat [4]: 0.45 s⁻¹ | kcat/Km [5]: 11.5 M⁻¹ s⁻¹ | kcat/Km [6]: 183 M⁻¹ s⁻¹

B3: Alpha-1,2-mannosidase (BT_3965) (Bacteroides thetaiotaomicron), Q8A0Q6 (protein)
chain: MAQTEKLTDYVNPFVGTDGYGNVYPGAQIPFGGIQISPDTDSRFYDAASGYKYNHLTLMGFSLTHLSGTGIPDLGDFLFIPGTGEMKLEPGTHEDPDQGYRSRYSHDKEWASPNYYAVELADYGVKAEMTSGVRSGMFRFTYPESDNAFIMIDMNHTLWQSCEWSNLRMINDSTITGYKLVKGWGPERHVYFTATFSKKLTGLRFVQDKKPVIYNTSRFRSSYEAWGKNLMACISFDTKAGEEVTVKTAISAVSTDGARNNMKELDGLTFNELRAKGEALWEKELGKYTLTADRKTKETFYTSAYHAALHPFIFQDSDGQFRGLDKNIEKAEGFTNYTVFSLWDTYRALHPWFNLVQQEVNADIANSMLAHYDKSVEKMLPIWSFYGNETWCMIGYHAVSVLADMIVKEVKGFDYERAYEAMKTTAMNSNYDCLPEYREMGYVPFDKEAESVSKTLEYAYDDYCIAQAAKKLGKEDDYHYFLNRALSYQTLIDPETKYMRGRDSKGDWRTPFTPVAYQGPGSVHGWGDITEGFTMQYTWYVPQDVQGYINEAGKELFRKRLDELFTVELPDDIPGAHDIQGRIGAYWHGNEPCHHVAYLYNYLKEPWKCQKWIRTIVDRFYGNTPDALSGNDDCGQMSAWYMFNCIGFYPVAPSSNIYNIGSPCAEAITVRMSNGKNIEMTADNWSPKNLYVKELYVNGKKYDKSYLTYDDIRDGVKLRFVMSGKPNYKRAVSDEAVPPSISLPEKTMKYKSSIGF
kcat/Km [7]: 233 M⁻¹ s⁻¹ | kcat/Km [8]: 183 M⁻¹ s⁻¹ | Km [9]: 1000 µM | kcat [9]: 0.233 s⁻¹ | Km [10]: 8000 µM | kcat [10]: 1.48 s⁻¹

B4: Glycoside hydrolase family 92 (BT_3963) (Bacteroides thetaiotaomicron), Q8A0Q8 (protein)
chain: MNKMKKKVLMMTMAAVTLSAVAQQPVDYVNPIIGTNGMGHTFPGACTPFGWVQLSPDTDTIPHNVNGAYQKNAYEYCAGYQYRDKTIVGFSHTHLSGTGHSDLGDILLMPAVGDVKLNPGRADHPEEGYRSRFDHATEKATPGYYEVMLDDYGIKAQLTATQRTGVHKYTFPKGKDGHLILDLVHGIYNYDGKVLWANLRVENDTLLTGYRITNGWARTNYTYFAISLSQPIKDYGYKDKEKVLYNGFWRRFKLEKNFPEITGRKIVAYFNFETAKDPELVVKVALSAVSTEGAVKNLRAEASGKSFEQLAEAARTDWNNELDHFEIEGTPDQKAMFYTSLYHTMINPSVYMDVDGSYRGLDHNIHQAKGFTNYTIFSLWDTYRAEHPFLNLVKPERNADMVESMIKHEQQSVHGMLPIWSLMGNENWCMSGYHAVSVLADAITKGVFSNVDEALSAMVSTSTVPYYEGVADYMKLGYIPLDKSGTAASSTLEYAYDDWTIYQTALKAGNKEIADTYRKRALNYRNIYDTSIGFARPRYSDGTFKKEFDVLQTYGEGFIEGNSWNFSFHVPHDVFGMIDLMGGEKTFVQKLDELFSMHLPEKYYEHNEDITEECLVGGYVHGNEPSHHVPYLYAWTSQPWKTQYWLREILNKMYKNDINGLGGNDDCGQMSAWYLFSVMGFYPVCPGTDQYVLGAPYLPYLKLTLPNGKTLEIKAPGVSDKKRYVQSLKLNGESYDKMYITHEDILKGGVLEFKMSASPNKRRGVSVQDKPYSLTNGIN
Km [11]: 790 µM | kcat [11]: 0.00045 s⁻¹ | kcat/Km [12]: 0.567 M⁻¹ s⁻¹

B5: Glycoside hydrolase family 92 (BT_3962) (Bacteroides thetaiotaomicron), Q8A0Q9 (protein)
chain: MNKQKLLSITMTLLLGVSSIFAQKQPVDYVNPLMGTDSKISLSNGNTYPAIALPWGMNFWMPQTGKMGDGWAYTYASDKIRGFKQTHQPSPWINDYGQFSIMPMTKQLKIDQDSRASWFSHKAEKATPYYYSVYLSEYNMTTEIAPTERCAYFRFTFPEASDAYVVVDAFDRGSYVKVIPEENKIVGYTTRNSGGVPQNFRNYFVIEFDKPFTFNKVWADYHLVETHLELQSNHVGAAIGFSTKKGEQVHAKVASSFISPEQAELNLKEIGNKTFEQTKEAGRKAWNDVLGRIKVEDDDENRMRTFYSCLYRSVLFPRMFHEVNAKGETVHYSPYNGEIRPGYMFTDTGFWDTFRCLFPFVNLIYPSMGEKMQEGLLNTYLESGFFPEWASPGHRGCMVGNNSASVVADAFMKNVTKADAEKMYEGLLKGANSVHPRVSTTGRRGYEYYNKLGYVPYDVKINENAARTLEYAYDDWCIYRMGEKLGRPAEELELYKSRSQNYRNLFDPETKLMRGKNADGTFQTPFNPFKWGDAFTEGNSWHYTWSVFHDVQGLADLMGGRKMFVSMLDSVFNLPPIFDDSYYGGVIHEIREMEIANMGNYAHGNQPIQHMIYLYNYAGEPWKAQYWLREVMNRLYFATPDGYCGDEDNGQTSAWYVFTALGFYPVCPGSNEYVMGAPYFKKATITLENGKKLEISAPKNSDANRYIRSLNYNGKNYTKNYLNHFDLLKGGRLVFDMDNKPNKGRGINESDFPYSFSRDNK
Km [13]: 5000 µM | kcat [13]: 0.283 s⁻¹ | Km [14]: 430 µM | kcat [14]: 13.7 s⁻¹ | kcat/Km [15]: 56.7 M⁻¹ s⁻¹ | kcat/Km [16]: 31700 M⁻¹ s⁻¹
